Measurements: patent US20060142193

Assays:
TAT-SRF = TAT-SRF (UniProt P11831)
TAT-SRF245A/254A = TAT-SRF245A/254A (UniProt P11831)
[1] = target: T1, serum response factor (SRF) (UniProt P11831)
T1 sequence: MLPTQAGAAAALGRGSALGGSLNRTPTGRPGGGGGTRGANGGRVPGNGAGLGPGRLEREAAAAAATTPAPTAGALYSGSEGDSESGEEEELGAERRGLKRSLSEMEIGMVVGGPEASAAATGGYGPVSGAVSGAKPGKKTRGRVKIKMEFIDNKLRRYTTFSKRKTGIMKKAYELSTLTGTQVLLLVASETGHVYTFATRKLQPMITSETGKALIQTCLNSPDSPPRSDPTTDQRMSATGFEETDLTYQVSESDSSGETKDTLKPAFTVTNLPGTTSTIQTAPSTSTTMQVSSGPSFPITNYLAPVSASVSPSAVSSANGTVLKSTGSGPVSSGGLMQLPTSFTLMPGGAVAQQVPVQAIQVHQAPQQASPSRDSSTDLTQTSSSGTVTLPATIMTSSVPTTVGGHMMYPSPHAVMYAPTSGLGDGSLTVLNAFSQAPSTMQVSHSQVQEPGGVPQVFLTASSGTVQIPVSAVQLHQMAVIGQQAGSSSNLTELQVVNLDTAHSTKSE

[2] = target: endogenous ROCK1 of neonatal rat cardiomyocytes (UniProt Q63644)
Sequence of endogenous ROCK1 of neonatal rat cardiomyocytes (Q63644 2-1369): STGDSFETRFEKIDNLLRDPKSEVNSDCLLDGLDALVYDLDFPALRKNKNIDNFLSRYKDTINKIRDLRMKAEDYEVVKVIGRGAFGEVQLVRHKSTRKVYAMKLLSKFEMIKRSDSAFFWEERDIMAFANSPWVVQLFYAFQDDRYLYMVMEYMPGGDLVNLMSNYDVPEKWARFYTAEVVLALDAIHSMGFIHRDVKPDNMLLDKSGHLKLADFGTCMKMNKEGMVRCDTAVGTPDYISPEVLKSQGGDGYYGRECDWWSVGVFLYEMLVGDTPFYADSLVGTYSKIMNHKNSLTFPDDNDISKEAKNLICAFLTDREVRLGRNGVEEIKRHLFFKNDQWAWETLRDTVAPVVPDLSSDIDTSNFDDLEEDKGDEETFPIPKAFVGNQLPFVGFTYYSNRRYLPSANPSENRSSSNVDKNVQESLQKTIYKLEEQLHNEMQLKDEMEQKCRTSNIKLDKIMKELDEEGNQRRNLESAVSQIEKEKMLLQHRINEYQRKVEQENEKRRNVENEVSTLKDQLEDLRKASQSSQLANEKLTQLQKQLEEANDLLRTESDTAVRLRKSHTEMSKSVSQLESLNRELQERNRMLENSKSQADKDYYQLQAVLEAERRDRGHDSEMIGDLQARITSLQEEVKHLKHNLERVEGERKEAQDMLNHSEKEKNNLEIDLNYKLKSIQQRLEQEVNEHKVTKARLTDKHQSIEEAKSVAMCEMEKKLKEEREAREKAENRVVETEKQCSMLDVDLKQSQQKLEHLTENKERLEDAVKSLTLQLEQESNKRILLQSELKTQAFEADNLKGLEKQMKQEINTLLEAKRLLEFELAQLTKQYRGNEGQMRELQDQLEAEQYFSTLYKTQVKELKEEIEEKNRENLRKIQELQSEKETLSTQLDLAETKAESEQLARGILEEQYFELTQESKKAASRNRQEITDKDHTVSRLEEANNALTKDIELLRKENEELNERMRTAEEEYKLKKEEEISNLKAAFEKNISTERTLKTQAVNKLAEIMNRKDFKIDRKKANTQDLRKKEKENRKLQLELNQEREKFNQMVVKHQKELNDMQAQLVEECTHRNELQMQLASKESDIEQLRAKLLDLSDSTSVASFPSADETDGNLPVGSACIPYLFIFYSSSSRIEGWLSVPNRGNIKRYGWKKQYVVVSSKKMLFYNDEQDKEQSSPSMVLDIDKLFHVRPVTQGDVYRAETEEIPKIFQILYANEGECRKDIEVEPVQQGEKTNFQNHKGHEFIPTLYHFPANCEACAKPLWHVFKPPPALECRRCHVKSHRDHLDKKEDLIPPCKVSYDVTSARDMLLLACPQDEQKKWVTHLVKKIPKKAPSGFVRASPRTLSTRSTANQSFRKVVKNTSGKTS

active caspase 3 (recombinant caspase 3)
in vitro cleavage by recombinant caspase 3 (TAT-SRF): only TAT-SRF was cleaved by caspase 3
in vitro cleavage by recombinant caspase 3 (TAT-SRF245A/254A): SRF245A/254A mutant was resistant to caspase 3 cleavage
in vitro cleavage of SRF [1]: Activated caspase 3 is able to cleave SRF in vitro

conditional caspase 3 (iCasp3)
130 kDa ROCK1 cleavage fragment by Western blot of infected cardiomyocytes [2]: The 130 kDa cleavage fragment of ROCK1 was detected in cardiomyocytes infected with Ad-G/iCasp3 and treated with CID
